From patent publication US20050272637A1 (OREGON HEALTH AND SCIENCE UNIVERSITY, published 2005)
Changes are numbered by the printed parent chain.

B1: RBD Int8 polypeptide (intron 8-encoded receptor binding domain of herstatin, expressed as a bacterial peptide) (peptide)
chain: GTHSLPPRPAAVPVPLRMQPGPAHPVLSFLRPSWDLVSAFYSLPLAPLSPTSVPISPVSVGRGPDPDAHVAVDLSRYEG
notes: Purified from BL-21 bacteria; also called Int8 RBD polypeptide; Int8 peptide; not shown: pET 30 vector-encoded tags (His tag used for nickel purification, S-protein tag used for immobilisation)
B2: mutant Int8 polypeptide with Arg to Ile mutation at residue 31 (peptide, not shown: small tags and cut ends)
chain: B1 chain with R31I
notes: also called mutant RBD Int8 polypeptide; mutant Int8 RBD polypeptide

Assays:
[1] = target: T1, HER-2 (erbB-2), human receptor (human, UniProt P04626 23-1255); assay: saturation binding to HER-2-transfected Cos-7 cells, herstatin ELISA, nonlinear regression (FIG. 5A)
T1 construct: On HER-2-transfected Cos-7 cells or 3T3/HER-2 cells (cell ELISA), or from transfected Cos-7 cell extracts (pull-down)
Protocol: (§1) ELISA. […] Cells were washed with Phosphate Buffered Saline (PBS) and extracted in 50 mM Tris-HCl, pH 7.0, 1.0% NP-40.
(§2) Statistical comparisons between different binding curves were performed by extra sums-of-squares F-test nonlinear regression coefficients. All tests were performed (α=0.05) using GraphPad Prism 4™ software (GraphPad™ Software, 1994-2003).

[2] = target: T1, HER-2 (erbB-2), human receptor; assay: saturation binding to HER-2/3T3 cells, herstatin ELISA, nonlinear regression (FIG. 5B)
Protocol: as §1, §2

[3] = target: T2, EGFR (HER-1, erbB-1), human epidermal growth factor receptor (human, UniProt P00533 25-1210); assay: saturation binding to EGFR-transfected Cos-7 cells, herstatin ELISA, nonlinear regression (FIG. 5A)
T2 construct: also called EGF receptor
Protocol: as §1, §2

[4] = target: T3, IGF-1R, insulin-like growth factor 1 receptor (human, UniProt P08069 31-1367); assay: saturation binding to IGF-IR 3T3 cells, herstatin ELISA (determination of EXAMPLE 2)
T3 construct: On IGF-IR transfected 3T3 cells (hIGF-1R-3T3) in cell ELISA, or from their extracts in pull-downs (detected through the beta subunit); The entry is the precursor; the processing into alpha and beta subunits is not described; also called IGF-IR; IGF-1 receptor
Protocol: as §1, §2

[5] = target: T3, IGF-1R, insulin-like growth factor 1 …; assay: saturation binding to IGF-IR/3T3 cells, herstatin ELISA, nonlinear regression (FIG. 5B)
Protocol: as §1, §2

[6] = target: T3, IGF-1R, insulin-like growth factor 1 …; assay: saturation binding to IGF-IR transfected 3T3 cells, herstatin ELISA, nonlinear regression
Protocol: as §1, §2

[7] = target: HER-4 (erbB-4), human receptor (human, UniProt Q15303 26-1308); assay: ELISA of Int8 bound to transfected cells (FIG. 3B)
Protocol: as §1

[8] = target: T1, HER-2 (erbB-2), human receptor; assay: pull-down of HER-2 from transfected cell extracts, Western blot
Protocol: Methods. Cell lines, expression vectors, protein purification, pull down assays, antibodies and ELISA assays were as described under EXAMPLE 1, herein above. […] Following washing steps, the protein bound to the agarose was analyzed as a Western blot with receptor-specific antibodies.

[9] = target: T1, HER-2 (erbB-2), human receptor; assay: herstatin ELISA of peptide bound to HER-2 overexpressing cells
Protocol: as §1

T3 sequence (P08069 31-1367 limits assumed): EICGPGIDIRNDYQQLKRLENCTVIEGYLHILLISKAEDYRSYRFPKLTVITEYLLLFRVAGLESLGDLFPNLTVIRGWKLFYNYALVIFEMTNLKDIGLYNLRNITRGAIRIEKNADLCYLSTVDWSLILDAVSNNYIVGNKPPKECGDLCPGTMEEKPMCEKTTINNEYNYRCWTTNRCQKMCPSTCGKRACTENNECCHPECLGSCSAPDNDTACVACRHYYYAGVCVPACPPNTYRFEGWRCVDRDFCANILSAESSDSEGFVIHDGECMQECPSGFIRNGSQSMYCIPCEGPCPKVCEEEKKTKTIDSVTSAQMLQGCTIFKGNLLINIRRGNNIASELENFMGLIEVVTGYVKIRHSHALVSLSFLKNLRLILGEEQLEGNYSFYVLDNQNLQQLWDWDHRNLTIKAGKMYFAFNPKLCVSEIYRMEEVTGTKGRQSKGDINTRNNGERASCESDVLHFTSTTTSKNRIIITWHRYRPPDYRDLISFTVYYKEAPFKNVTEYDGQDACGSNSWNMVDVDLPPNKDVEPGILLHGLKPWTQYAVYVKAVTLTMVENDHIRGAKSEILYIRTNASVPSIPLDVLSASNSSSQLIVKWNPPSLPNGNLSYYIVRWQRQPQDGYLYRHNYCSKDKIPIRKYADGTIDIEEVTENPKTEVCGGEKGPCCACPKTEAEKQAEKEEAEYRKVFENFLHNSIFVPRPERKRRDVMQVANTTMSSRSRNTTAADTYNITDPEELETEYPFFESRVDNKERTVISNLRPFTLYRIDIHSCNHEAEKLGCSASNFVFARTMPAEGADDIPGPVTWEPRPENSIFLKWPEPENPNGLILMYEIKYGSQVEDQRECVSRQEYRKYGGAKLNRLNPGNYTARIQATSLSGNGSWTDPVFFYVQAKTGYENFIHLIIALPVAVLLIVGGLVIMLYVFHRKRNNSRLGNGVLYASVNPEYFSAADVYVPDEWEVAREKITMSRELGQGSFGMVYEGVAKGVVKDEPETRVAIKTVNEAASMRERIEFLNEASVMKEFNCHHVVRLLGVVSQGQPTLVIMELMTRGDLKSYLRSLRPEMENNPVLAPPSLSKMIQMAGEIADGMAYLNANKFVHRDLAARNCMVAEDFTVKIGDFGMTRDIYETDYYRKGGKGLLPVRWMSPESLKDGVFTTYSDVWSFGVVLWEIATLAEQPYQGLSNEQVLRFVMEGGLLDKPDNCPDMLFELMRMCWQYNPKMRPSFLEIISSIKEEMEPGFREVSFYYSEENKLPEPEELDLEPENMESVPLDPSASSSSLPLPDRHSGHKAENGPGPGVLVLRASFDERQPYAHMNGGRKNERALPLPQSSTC
Sequence of HER-4 (erbB-4), human receptor (Q15303 26-1308 limits assumed): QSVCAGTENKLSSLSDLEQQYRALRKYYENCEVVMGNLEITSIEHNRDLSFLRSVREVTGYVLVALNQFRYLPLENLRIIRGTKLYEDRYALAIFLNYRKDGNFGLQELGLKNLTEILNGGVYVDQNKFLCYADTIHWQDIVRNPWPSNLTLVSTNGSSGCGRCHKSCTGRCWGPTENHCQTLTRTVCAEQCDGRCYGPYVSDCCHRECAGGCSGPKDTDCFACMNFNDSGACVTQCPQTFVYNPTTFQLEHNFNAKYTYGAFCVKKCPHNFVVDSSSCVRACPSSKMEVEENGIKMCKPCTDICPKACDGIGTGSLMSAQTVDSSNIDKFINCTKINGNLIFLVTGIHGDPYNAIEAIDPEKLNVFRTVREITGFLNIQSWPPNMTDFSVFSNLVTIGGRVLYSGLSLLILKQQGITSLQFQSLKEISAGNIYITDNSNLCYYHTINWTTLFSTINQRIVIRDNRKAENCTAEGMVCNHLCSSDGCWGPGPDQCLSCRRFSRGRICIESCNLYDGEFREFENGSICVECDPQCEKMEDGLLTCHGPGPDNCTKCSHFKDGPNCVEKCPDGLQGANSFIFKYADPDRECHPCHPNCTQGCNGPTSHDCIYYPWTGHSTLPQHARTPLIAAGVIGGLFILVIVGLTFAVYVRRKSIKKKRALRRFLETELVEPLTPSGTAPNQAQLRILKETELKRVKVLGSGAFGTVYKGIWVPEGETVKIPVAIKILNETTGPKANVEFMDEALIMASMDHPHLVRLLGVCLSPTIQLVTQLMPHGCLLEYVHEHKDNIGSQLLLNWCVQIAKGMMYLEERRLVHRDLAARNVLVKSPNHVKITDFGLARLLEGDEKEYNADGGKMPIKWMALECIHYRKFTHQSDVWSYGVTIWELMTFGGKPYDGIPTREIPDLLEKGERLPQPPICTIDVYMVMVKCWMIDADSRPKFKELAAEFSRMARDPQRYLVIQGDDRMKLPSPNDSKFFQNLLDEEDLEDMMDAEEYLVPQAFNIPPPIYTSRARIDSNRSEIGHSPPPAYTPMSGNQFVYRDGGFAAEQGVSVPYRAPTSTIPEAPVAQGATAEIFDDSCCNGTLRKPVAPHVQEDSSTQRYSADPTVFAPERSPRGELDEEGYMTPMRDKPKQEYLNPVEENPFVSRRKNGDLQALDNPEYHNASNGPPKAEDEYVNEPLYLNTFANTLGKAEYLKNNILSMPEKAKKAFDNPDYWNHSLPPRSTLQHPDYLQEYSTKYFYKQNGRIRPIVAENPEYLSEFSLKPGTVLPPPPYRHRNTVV

Binder	Kd [1]	Kd [2]	Kd [3]	Kd [4]	Kd [5]	Kd [6]	binding result [7]	fold weaker binding than the wild type sequence (SEQ ID NO:24) [8]	fold weaker binding than the wildtype peptide [9]
B1	50 nM	66 nM	78 nM	40 nM	70 nM	40 to 150 nM	binds	–	–
B2	–	–	–	–	–	–	–	~2 fold	~2 fold
